Legend:
Type in all cases: biochemical
[1] = Enantioselectivity of NHases towards rac-2-phenylpropionitrile (washed cells, chiral HPLC); conditions: for E-value: kinetic resolution of rac-2-phenylpropionitrile; for enantiopreference: rac-2-phenylpropionitrile
Method: For the determination of enantioselectivity towards rac-mandelonitrile and 2-phenylpropionitrile 40-50 mg of washed cells were resuspended in 1 ml of 50 mM Tris/HCl pH 7.5. 100 μl of cell suspension were mixed with 800 μl 50 mM Tris/HCl pH 7.5 and incubated at 30° C. in a thermomixer at 1000 rpm. The biotransformation was started by addition of 100 μl of 10 mM rac-mandelonitrile or rac-2-phenylpropionitrile in 50 mM Tris/HCl pH 7.5. The reaction was stopped by addition of 100 μl 1M HCl after 1, 5 or 10 min. Cells were removed by centrifugation and the supernatant analysed by chiral HPLC for the presence of mandeloamide and phenylpropionamide, respectively. rac-Mandeloamide was analysed on a HPLC comprising a Surveyor 4 channel Pump, AutoSampler and UVNIS detector at 210 nm from Thermo Finnigan on a Nucleodex β-OH column (Macherey & Nagel) using 50% methanol/water:water (40:60) as mobile phase at a flow rate of 0.7 ml/min. The apparent enantiomeric ratio (Eapp) of the conversion of mandelonitrile was calculated according to Straathof and Jongejan for asymmetric catalysis (see example 9). In case of 2-phenylpropionamide, the samples were lyophilized and resuspended in n-hexane: 2-propanol (80:20). Prior to injection, the samples were additionally dried with sodium sulfate and were centrifugated at 16,000 g for 5 min. The supernatants were analyzed using a Chiracel OD column (Daicel) on a Spectra System (AS3000, P2000, UV2000 at 210 nm) from Thermo Separation Products with n-hexane: 2-propanol (80:20) as mobile phase at a flow rate of 0.5 ml/min. The enantiomeric ratio (E) of the conversion of PPN was calculated according to Chen et al.

[2] = Activity of enzyme samples after heterologous expression of NHases in E. coli towards PPN; conditions: 1 mM PPN; stopped after 1 min; host E. coli BL21 (DE3) (a) or E. coli Rosetta (DE3) (b)
Method: The amplified α-subunits were ligated to pET22b whereas the β-subunits were ligated to pET26b by use of the unique NdeI and XhoI restriction enzyme recognition sites. E. coli BL21 (DE3) or E. coli Rosetta (DE3) was cotransformed with the vectors carrying the genes for the corresponding α- and β-subunits of the NHases. Freshly transformed cells were grown over night at 37° C. in 5 ml LB-medium containing 100 μg/ml ampicillin, 25 μg/ml kanamycin and 2% (w/v) glucose. In case of E. coli Rosetta (DE3) 12.5 μg/ml chloramphenicol was additionally used. 1 ml of this culture was used to inoculate 100 ml of LB-medium containing 100 μg/ml ampicillin, 25 μg/ml kanamycin and 1% (w/v) glucose. Cells were incubated at 20° C. or 30° C. on a gyratory shaker at 100 rpm. At an optical density O.D.595=1 cells were induced by addition of 100 μg/ml IPTG. Simultaneously, CoCl2*6H2O was added in a concentration of 250 μM. When the P16K activator protein from the strain Brevibacterium linens was coexpressed with the corresponding NHase E. coli Rosetta (DE3) pET22—32B1α pET26—32B.1β pBBR5—32B_P16K was grown in LB-medium containing 100 μg/ml ampicillin, 25 μg/ml kanamycin, 12.5 μg/ml chloramphenicol and 10 μg/ml gentamycin and 1% (w/v) glucose. Samples were taken 24 h after induction.
(§1) If not otherwise indicated enzyme samples were prepared as follows: the cells from 1 ml of the culture were washed with 50 mM Tris/HCl pH 7.5 and resuspended in 750 μl of the same buffer. This suspension was incubated at 30° C. in a thermomixer at 1000 rpm. The biotransformation was started by addition of the substrate 2-phenylpropionitrile (PPN) in 50 mM Tris/HCl pH 7.5. The concentration of the substrate was 1 mM, if not otherwise stated. The reaction was stopped after 1 min, 5 min or 10 min as indicated by addition of 1 M HCl. Cells were removed by centrifugation and the supernatant analysed by HPLC for the presence of the corresponding amide. The HPLC analysis was carried out on a system comprising a Surveyor 4 channel Pump, AutoSampler and UVNIS detector at 210 nm from Thermo Finnigan on a Grom-Sil 1200DS-3 cp 3 μm (125×4.6 mm) reverse phase column. As mobile phase, acetonitrile and 0.3% H3PO4 were used in a ratio of 50:50 at a flow of 0.7 ml/min, respectively.

[3] = Dependence of NHase activity on the temperature; conditions: for optimal temperature: 1 mM PPN
Method: As enzyme samples cell free crude extracts were used either of the heterologously or homologously produced enzyme. The substrate (1 mM 2-phenylpropionitrile (PPN) in 50 mM Tris/HCl pH 7.5)) was equilibrated at the indicated temperatures before the reaction was started by addition of 50 μl of enzyme sample. The activity was determined as described in example 4.
As enzyme samples lyophilized cells or a cell free crude extract were used. The samples were equilibrated for 5 min at the indicated temperatures before the reaction was started by addition of PPN to a final concentration of 1 mM. The activity was determined as described in example 4.
as §1
The optimal temperatures for the NHases according to Seq ID No. 2 and 4 (Raoultella terrigena, 77.1) and Seq ID. No. 18 and 20 (Klebsiella oxytoca, 38.1.2) were determined to be at 45° C. (FIG. 23 and FIG. 24). At 55° C. a residual activity of about 20% was found for the enzyme according to Seq ID-No. 18 and 20 whereas at 60° C. no activity could be determined.

B1: NHase Seq ID No. 2 and 4: nitrile hydratase of Raoultella terrigena strain 77.1, α-subunit SEQ ID NO 2, β-subunit SEQ ID NO 4 (protein)
alpha: MSHKHDHDHTEPPVDIELRVRALESLLQEKGLIDPAALDELIDTYEHKVGPRNGAQVVARAWSDPEYKRRLMENATAAISELGFSGIQGEDMLVVENTPDVHNVTVCTLCSCYPWPVLGLPPVWYKSAPYRSRIVIDPRGVLAEFGLHIPESKEIRVWDSSAELRYLVLPERPAGTDGWSEAQLSELISRDSMIGTGVVTAP
beta: MNGIHDLGGMHGFGPIPTEENEPYFHHEWERRVFPMFASLFVGVHFNVDEFRHSIECMPPADYLQSSYYEHWLHAFETLLLAKGVITVDELWGGAKPTLCKPGTPVLTQDMVSMVVSTGGSARVSHDVAPRFRVGDRVRTKNFNPTTHTRLPRYARDKVGRIEIAHGVFITPDTAAHGLGEHPQHVYSVSFTAQELWGEPRPDNVFIDLWDDYLEEA
modifications: Raoultella terrigena, strain 77.1
- E-value [1]: 47
- enantiopreference [1]: (S)
- vol. activity [2]: 4.9 μkat/L cultur
- optimal temperature [3]: 45 °C
- residual activity at 60° C. [3]: 60-79%

B2: NHase Seq ID No. 18 and 20: nitrile hydratase of Klebsiella oxytoca strain 38.1.2, α-subunit SEQ ID NO 18, β-subunit SEQ ID NO 20 (protein)
alpha: MSHKHDHDHTQPPVDIELRVRALESLLQEKGLIDPAALDELIDTYEHKVGPRNGAQVVARAWSDPEYKRRLMENATAAIAELGFSGIQGEDMLVVENTPDVHNVTVCTLCSCYPWPVLGLPPVWYKSAPYRSRIVIDPRGVLAEFGLHIPENKEIRVWDSSAELRYLVLPERPAGTEGWSEAQLSELITRDSMIGTGVVTAP
beta: MNGIHDLGGMHGLGPIPTEENEPYFHHEWERRVFPLFASLFVGGHFNVDEFRHAIERMAPTEYLQSSYYEHWLHAFETLLLAKGVITVEELWGGAKPAPCKPGTPVLTQEMVSMVVSTGGSARVSHDVAPRFRVGDWVRTKNFNPTTHTRLPRYARDKVGRIEIAHGVFITPDTAAHGLGEHPQHVYSVSFTAQALWGEPRPDKVFIDLWDDYLEEA
modifications: Klebsiella oxytoca, strain 38.1.2
- E-value [1]: 35
- enantiopreference [1]: (S)
- spec. activity [2]: 9.6 μkat/g cdw
- vol. activity [2]: 8.6 μkat/L cultur
- optimal temperature [3]: 45 °C
- residual activity at 55° C. ([3]; 55° C.): about 20%
- residual activity at 60° C. [3]: no activity

Source: patent US8470576B2, “Group of novel enantioselective microbial nitrile hydratases with broad substrate specificity” (B.R.A.I.N. AG, priority 2006, dated 2013)
